Experimental data published in PMC9559756.

Tests used:
[1] = molecular target: untagged-cpAQP1aa-243 (C-terminally truncated aquaporin 1aa from Anabas testudineus, climbing perch) (Anabas testudineus (climbing perch)); assay: crystal structure; untagged-cpAQP1aa-243, hanging-drop vapor diffusion, 4°C; reservoir 100 mM Tris-HCl pH 7.8, 5% γ-PGA, 30% PEG400, D-sorbitol additive; space group P42_(1)2, one monomer in the asymmetric unit; 1.9 Å
[2] = molecular target: untagged-cpAQP1aa-243 (C-terminally truncated aquaporin 1aa from Anabas testudineus, climbing perch) (Anabas testudineus (climbing perch)); assay: crystal structure; untagged-cpAQP1aa-243, hanging-drop vapor diffusion, 4°C; reservoir 300 mM lithium sulfate, 100 mM ADA pH 6.5, 30% PEG400, dextran sulfate additive; space group C222_(1), four monomers in the asymmetric unit; 3.5 Å

stoichiometry N [1]: 4 | stoichiometry N [2]: 4
Substance: untagged-cpAQP1aa-243 (C-terminally truncated aquaporin 1aa from Anabas testudineus, climbing perch) (domain or fragment)
